The text below walks through data of patent US20200353078A1 (AstraZeneca / MedImmune, published 2020).

B6: Cynomolgus IL-33 Flag®His (ligand)
chain: SITGISPITESLASLSTYNDQSITFALEDESYEIYVEDLKKDKKKDKVLLSYYESQHPSSESGDGVDGKMLMVTLSPTKDFWLQANNKEHSVELHKCEKPLPDQAFFVLHNRSFNCVSFECKTDPGVFIGVKDNHLALIKVDYSENLGSENILFKLSEINPAFLYKVVGAADYKDDDDKAAHHHHHHHHHH
notes: C-terminal FLAG 10xHis tag, E. coli; also called Mature Cynomolugus IL-33; cyno IL-33 FH

The target of assay [1] is T1, Human IL-33 Flag®His (human).
T1 construct: Mature IL-33 with C-terminal FLAG 10xHis tag, from E. coli; biotinylated via free cysteines where used biotinylated; also called Mature Human IL-33_FH; human IL-33 FH
T1 chain: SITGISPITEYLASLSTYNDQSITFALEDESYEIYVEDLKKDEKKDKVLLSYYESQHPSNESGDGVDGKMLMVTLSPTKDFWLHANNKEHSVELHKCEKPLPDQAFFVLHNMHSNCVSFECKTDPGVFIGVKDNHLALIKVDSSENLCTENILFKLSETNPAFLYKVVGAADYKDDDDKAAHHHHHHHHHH
Kind of assay: HTRF competition, IgG titrated against biotinylated human ST2-Fc. The protocol:
The ability of anti-IL-33 antibodies to inhibit the binding of FLAG®-His tagged IL-33 to the ST2 receptor was assessed in a biochemical HTRF® (Homogeneous Time-Resolved Fluorescence, Cisbio International) competition assay, the principles of which are described above.
(§1) Activity of purified IgG preparations were determined by competing a dilution series of the purified IgG against biotinylated human or mouse ST2.Fc for binding to FLAG® His-tagged human, cynomolgus or mouse IL-33.
(§2) Purified or unpurified anti-IL-33 antibody samples were tested for inhibition of FLAG®-His tagged IL-33 binding ST2-Fc by adding 10 microlitres of each dilution of antibody test sample to a 384 well low volume assay plate (Costar 3676). Next, a solution containing 4 nM biotinylated human or mouse ST2-Fc and 20 nM streptavidin XL665 detection (Cisbio International, 611SAXLB) was prepared and 5 microlitres of the mix added to the assay plate. This was followed by the addition of 5 microlitres of a solution containing 1.2 nM FLAG®-His tagged human, cynomolgus or mouse IL-33 combined with 1.72 nM anti-FLAG® cryptate detection (Cisbio International, 61FG2KLB). All dilutions were performed in assay buffer comprised of Dulbeccos PBS (Invitrogen, 14190185) containing 0.8 M potassium fluoride (BDH 103444T) and 0.1% BSA (Sigma A9576). Assay plates were incubated for 2 hour at room temperature followed by 16 hour at 4° C. before reading time resolved fluorescence at 620 nm and 665 nm emission wavelengths using an EnVision plate reader (Perkin Elmer).
On the technique in general: Time-resolved FRET reads energy transfer from a long-lived donor to a nearby acceptor.

Assay [2] addresses T1, Human IL-33 Flag®His. Kind of assay: cell-based or functional assay.
Assay [3] deals with B6. The assay can be described thus: HTRF competition: purified IgG titrated against biotinylated human ST2-Fc for FLAG-His cynomolgus IL-33. The protocol: as §1, §2
Assay [4] has as its target T2, His10/Avi Human IL33-01 (human).
T2 construct: Wild type mature IL-33 with N-terminal 10xHis, Avitag and Factor Xa site; biotinylated by BirA on the Avitag where used biotinylated; reduced form unless treated; also called N-terminal His Avi IL-33; His-Avi human IL-33 wild type
T2 chain: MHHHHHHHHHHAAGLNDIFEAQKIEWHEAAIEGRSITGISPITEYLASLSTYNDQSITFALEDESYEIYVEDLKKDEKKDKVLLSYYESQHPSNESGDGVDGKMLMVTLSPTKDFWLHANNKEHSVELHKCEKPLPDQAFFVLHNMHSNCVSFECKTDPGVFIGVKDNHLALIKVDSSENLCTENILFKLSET
Kind of assay: HTRF competition: purified IgG against FLAG-His human ST2 for biotinylated IL33-01, overnight incubation.

Assay [5] deals with T3, Full-length human IL-33 (amino acids 1-270), HEK293-EBNA cell lysate (human, UniProt O95760 1-270).
T3 sequence (looked up): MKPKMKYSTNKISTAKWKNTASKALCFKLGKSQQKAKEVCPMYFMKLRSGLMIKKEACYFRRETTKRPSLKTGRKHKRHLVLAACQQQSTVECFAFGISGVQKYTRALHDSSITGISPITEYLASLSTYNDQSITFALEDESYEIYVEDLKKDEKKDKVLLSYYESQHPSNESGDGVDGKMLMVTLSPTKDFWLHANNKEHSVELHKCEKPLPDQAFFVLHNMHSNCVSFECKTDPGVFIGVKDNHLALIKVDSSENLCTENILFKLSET
The assay can be described thus: cell-based or functional assay.

Assay [6] addresses T4, Endogenous human IL-33 (human, UniProt O95760 1-270, limits assumed).
T4 sequence (looked up): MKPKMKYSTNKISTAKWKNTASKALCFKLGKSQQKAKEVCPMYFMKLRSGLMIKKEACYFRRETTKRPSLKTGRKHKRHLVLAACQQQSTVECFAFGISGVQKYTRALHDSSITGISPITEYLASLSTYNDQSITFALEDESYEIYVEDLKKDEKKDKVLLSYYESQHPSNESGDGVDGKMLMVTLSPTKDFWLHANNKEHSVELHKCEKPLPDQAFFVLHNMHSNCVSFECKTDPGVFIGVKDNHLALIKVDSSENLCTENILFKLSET
The assay can be described thus: cell-based or functional assay.

Assay [7] concerns the target T2, His10/Avi Human IL33-01. The assay can be described thus: HTRF epitope competition, IgG titrated; competitor DyLight labelled 33_640117 IgG; 1 hour. An outline of the steps:
(§3)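 HTRF competition in which titrated IgG blocks binding of DyLight-labelled 33_640117 IgG (2.5 nM stock) to biotinylated IL-33 detected with streptavidin cryptate: human IL-33-01 at 0.12 nM with 0.75 nM cryptate, cyno IL-33 at 0.24 nM with 1.5 nM cryptate (solution concentrations). Fluorescence read after 1 h and overnight.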

For assay [8], the target named is T5, His10/Avi Cyno IL-33 (cynomolgus monkey).
T5 construct: also called Cynomolgus 10His Avitag IL-33; biotinylated His Avi cynomolgus IL-33
T5 chain: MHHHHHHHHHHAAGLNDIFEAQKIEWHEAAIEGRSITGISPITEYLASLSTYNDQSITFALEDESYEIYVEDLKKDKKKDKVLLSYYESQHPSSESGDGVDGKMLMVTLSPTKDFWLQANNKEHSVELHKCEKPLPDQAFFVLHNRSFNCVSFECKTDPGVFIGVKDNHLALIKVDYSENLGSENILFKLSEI
The description is as above. An outline of the steps: as §3

The target of assay [9] is T2, His10/Avi Human IL33-01. The assay can be described thus: HTRF epitope competition, IgG titrated; competitor DyLight labelled 33_640117 IgG; overnight. In outline: as §3
Assay [10] deals with T1, Human IL-33 Flag®His. Kind of assay: HTRF: IL-33FH binding to biotinylated ST2-Fc, IgG titrated, after 18 h pre-incubation of IgG with IL-33.
In assay [11] the target is T6, Human IL-33 (Axxora/Adipogen AG-40B-0038) (human, UniProt O95760 112-270, limits assumed).
T6 construct: Bought; also called IL-33 (Adipogen); biotinylated human IL-33
T6 sequence (looked up): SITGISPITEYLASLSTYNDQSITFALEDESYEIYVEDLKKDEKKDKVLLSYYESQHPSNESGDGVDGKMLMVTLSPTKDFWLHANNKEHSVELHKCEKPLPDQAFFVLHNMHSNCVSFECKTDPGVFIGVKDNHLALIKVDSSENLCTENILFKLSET
Kind of assay: HTRF epitope competition: unlabelled IgG against DyLight labelled IL330101 IgG for biotinylated human IL-33.

Assay [12] has as its target T7, 33_640237-2B IgG1.
T7 construct: IgG1
Kind of assay: HTRF: unlabelled test protein competes with biotinylated human IL33-01 for DyLight650 labelled 33_640237-2B IgG. On the procedure: (§4) Human, cyno and mouse IL-33 FLAG® His (described in Example 1 and Table 21), Human IL-1 alpha and IL-1 beta (R&D Systems) (Table 21) or rat IL-33 (GenScript) were tested for inhibition of human IL-33 binding to DyLight650 labelled 33_640087-7B or DyLight650 labelled 33_640237-2B by adding 5 microlitres of each dilution of sample to a 384 well low volume assay plate (Costar, 3673). […] This was followed by the addition of 2.5 microlitres of a solution containing 0.12 nM biotinylated human IL-33-01 combined with 0.75 nM streptavidin cryptate detection (Cisbio International, 610SAKLB). All dilutions were performed in assay buffer containing 0.8 M potassium fluoride (VWR, 26820.236) and 0.1% bovine serum albumin (BSA, PAA, K05-013) in Dulbeccos PBS (Invitrogen, 14190185). Assay plates were incubated for 4 hours at room temperature followed by 18 hours at 4 degrees Celsius and time resolved fluorescence was read at 620 nm and 665 nm emission wavelengths using an EnVision plate reader (Perkin Elmer). Data were analysed by calculating the 665/620 nm ratio followed by the % Delta F values for each sample. The 665/620 nm ratio was used to correct for sample interference using Equation 1. The % Delta F for each sample was then calculated using Equation 2. The negative control (non-specific binding) was defined by replacing biotinylated human IL-33 combined with streptavidin cryptate detection with streptavidin cryptate detection only. The % Delta F values were subsequently used to calculate % specific binding as described in Equation 3. IC₅₀ values were determined using GraphPad Prism software by curve fitting using a four-parameter logistic equation (Equation 4).

Assay [13] has as its target T8, 33_640087-7B IgG1.
T8 construct: IgG1
Kind of assay: HTRF: unlabelled test protein competes with biotinylated human IL33-01 for DyLight650 labelled 33_640087-7B IgG. On the procedure:
as §4, with “The negative control (non-specific binding) was defined by replacing biotinylated human IL-33 combined with streptavidin cryptate detection with streptavidin cryptate detection only. The % Delta F values were subsequently used to calculate % specific binding as described in Equation 3.” left out

The term IC50 denotes the midpoint of a concentration-inhibition curve. A lower IC50 goes with inhibition by little substance.

B1: IL330125 IgG1 (antibody, V domains shown)
VH: EVQLVQSGAEVKKPGASVTVSCKASGYSFTDYYIHWVRQAPGQGPEWMGWINPNSGVTDFAQKFLGRVTMTRDTSISTAYMELSRLTSDDTALYYCARVAFVYYDSSAFQYWGKGTLVTVSS
VL: LPVLTQPPSVSVSPGQTATITCSADKLGDKYAAWYQQKPGQSPVLVIYQDRKRPSGIPERFSGSNSGNTATLIISGTQAMDEADYYCQAWDSNTGLYVFGTGTKLTVL
notes: Human IgG1, lambda constant
B1: the IC50 in [1] stood at 210 nM. Besides, the “IC50, human ST2 transfected HeLa NFkB luciferase reporter assay” value in assay [2] amounted to 332 nM. In addition, the binding result in [3] is recorded as “binds”.

B2: IL330126 IgG1 (antibody, V domains shown)
VH: EVQLVQSGAELKKPGASVKVSCKTSGYSFNTYGISWVRQAPGQGLEWMGWVSGDDGNINYAEKFQGRVAMTTDTSTTTAYMELWSLTSDDTAVYYCARVRRGSGWYKNYHYYMDVWGQGTMVTVSS
VL: QSVLTQPPSVSVSPGQTASVTCSGDRLGDKYASWYQQKPGQSPVLVIYQDRKRPSGIPERFSGSNSGNTATLTISGTQAMDEADYYCQAWDGSTALFGGGTKLTVL
notes: Human IgG1, lambda constant
B2 came in with a half-maximal inhibitory concentration (IC50) in [1] of 226 nM. In addition, in [2], the “IC50, human ST2 transfected HeLa NFkB luciferase reporter assay” value was 245 nM. Further, the binding result in assay [3] is recorded as “binds”.

B3: 33_640050 IgG1 (antibody, V domains shown)
VH: EVQLLESGGGLVQPGGSLRLSCAASGFTFSSYAMSWVRQAPGKGLEWVSAISGSGGSTYYADSVKGRFTISRDNSKNTLYLQMNSLRAEDTAVYYCPRHKFMQLWGGGLRYPFGYWGQGTMVTVSS
VL: SYVLTQPPSVSVSPGQTASITCSGERMGDKYAAWYQQKPGQSPVLVIYQDTKRPSGIPERFSGSNSGNTATLTISGTQAMDEADYYCQVWDSSTGVFGGGTKVTVL
notes: IgG1; also called ZZ1F7Q-D10
For the molecule B3, the “IC50 (read off the curve)” value in assay [4] is roughly 0.5 nM. Also, in assay [5], the “IC50, Huvec IL-8 assay vs. full length IL-33 cell lysate” value came out at 0.32 nM. Moreover, the “IC50, Huvec IL-8 release stimulated by human lung lysate” value in assay [6] was found to be 0.032 nM. The values for the IC50 in assay [7], in assay [8] and in assay [9] were 0.3 nM, 4.1 nM and 1.5 nM, respectively.

B4: H338L293 (SEQ ID NOs 182 and 187) (antibody, V domains shown)
VH: EVQLLESGGGLVQPGGSLRLSCAASGFTFSSYAMSWVRQAPGKGLEWVSAISPREGWQYYADSVKGRFTISRDNSKNTLYLQMNSLRAEDTAVYYCVRVVAGYFDSWGRGTLVTVSS
VL: SYELMQPPSVSVSPGQTARITCSGDALPKQYAHWYQQKPGQAPVLVIYKDTERPSGIPERFSGSSSGTTVTLTISGVQAEDEADYYCMSSDPSGASRVFGGGTKLTVL
notes: IgG; also called H338L293_fgl; H338L293 IgG
Take B4: the “IC50 (read off the curve)” value in assay [10] was roughly 30 nM.

B5: IL330259 IgG1 (antibody, V domains shown)
VH: EVQLLESGGGLVQPGGSLRLSCAASGFTFSSYAMSWVRQAPGKGLEWVSASTPWQGSTYYADSVKGRFTISRDNSKNTLYLQMNSLRAEDTAVYYCVRVVAGYFDSWGRGTLVTVSS
VL: SYVLTQPPSVSVSPGQTARITCSGDALPKQYAHWYQQKPGQAPALVIYKDTERPSGIPERFSGSSSGTTVTLTISGVQAEDEADYYCQSADSSGASRVFGGGTKVTVL
notes: IgG1
Take B5: in assay [11], the “IC50 (read off the curve)” value is roughly 0.1 nM.
Regarding B6, the entries for the “IC50 (read off the curve)” value in assay [12] and in assay [13] were roughly 200 nM and roughly 10 nM, respectively.
